Results taken from patent US10401365B2, “Inhibition of chemokine CCL7 or receptor CCR3 of same for the treatment and diagnosis of prostate cancer” (Universite Paul Sabatier (Toulouse III), priority 2014, dated 2019).
“And” between values parts separate entries of the source, which are not always exact repeats. Equal values may be shown once.

Columns and labels:
[1] = system: PC-3 cells; assay: Boyden chamber migration of PC-3 cells against conditioned medium from mature adipocytes (CM-Ad, 3T3-F442A); format: cell-based, human
From the text: The monoclonal antibodies targeted against CCR1 (D063-3 clone 141-2) and CCR3 (D083-3, clone 444-11) are obtained from MBL International (Worburn, Mass., USA). The anti-CCR2 (clone E68) and anti-CCR3 (clone Y31) monoclonal antibodies are obtained from Abcam (Cambridge, Mass., USA). The monoclonal antibodies against CXCR2 (clone 48311), CXCR4 (clone 44716) and CCR1 (clone 53504) are obtained from R&D Systems (Minneapolis, Minn., USA).
The inhibitor targeting the receptor CXCR4, AMD3100 (Rosenkilde, Gerlach et al. 2004) is obtained from Sigman Aldrich and is used at final concentrations of 1, 10, 50 and 100 nM. The inhibitor targeting the receptors CXCR1 and CXCR2, SB225002 (White, Lee et al. 1998)) is obtained from Tocris (Bristol, United Kingdom) and is used at final concentrations of 1, 10 and 100 nm. […]
In order to evaluate the ability of tumor cells to migrate according to the culture medium, Boyden chamber migration tests were conducted using 8 μm porosity Greiner bio-one inserts. […] The migration of the tumor cells is evaluated after 12 hrs of migration at 37° C. and 5% CO2 by 1% toluidine blue staining supplemented with 0.1M borax (Sigma, St Louis, Mo., USA) and quantification of the absorbance (measured at 570 nm).

[2] = system: RM1-BM cells; assay: Migration of RM1-BM cells against serum-free medium with recombinant CCL7; format: cell-based, mouse; details: 100 ng/mL; p<0.01
Description: (§1) In order to evaluate the ability of tumor cells to migrate according to the culture medium, Boyden chamber migration tests were conducted using 8 μm porosity Greiner bio-one inserts. In the lower compartment either culture medium with or without serum, or conditioned medium from F442A adipocytes (CM-Ad), human periprostatic adipose tissue (CM-PPAT), mouse perigonadal adipose tissue (CM-PGAT), adipocytes or vascular fraction cells (SVF) isolated from PPAT or PGAT is introduced. These conditioned media may be pretreated for 30 minutes by adding antibodies blocking the chemokine CCL7. Experiments with the recombinant chemokine CCL7 were also conducted, in this case the chemokine is added to serum-free culture medium to verify the chemoattractant potential thereof on a cell line. In the upper chamber 1×10^5 cells, previously depleted for 6 hours of serum are deposited in serum-free culture medium. […] The migration of the tumor cells is evaluated after 12 hrs of migration at 37° C. and 5% CO2 by 1% toluidine blue staining supplemented with 0.1M borax (Sigma, St Louis, Mo., USA) and quantification of the absorbance (measured at 570 nm).

[3] = system: Du-145 cells; assay: Migration of Du-145 cells against serum-free medium with recombinant CCL7; format: cell-based, human; details: dose-dependent, 1-100 ng/ml
Description: as §1

[4] = system: PC-3 cells; assay: Migration of PC-3 cells against serum-free medium with recombinant CCL7; format: cell-based, human; details: dose-dependent, 1-100 ng/ml
Description: as §1

[5] = system: TRAMP-C1P3 cells; assay: Migration of TRAMP-C1P3 cells against serum-free medium with recombinant CCL7; format: cell-based, mouse; details: 1-100 ng/ml
Description: as §1

[6] = system: TRAMP-C1P3 cells; assay: Intraprostatic injection of TRAMP-C1P3 cells in C57BL/6 mice, tumor growth; format: in vivo; details: for tumor size: 2×10^6 cells intraprostatic, n=11, p<0.001 vs shCtrl
Description: Male C57BL/6 mice aged 18 weeks on a normal or high-fat diet were anesthetized with isoflurane. A transverse incision was made at the lower part of the abdomen. The muscles of the abdominal wall were incised, and the bladder and the seminal vesicles were released so as to expose the dorsal lobe of the prostate. A suspension of 2×10^6 cells (in 30 μl of PBS) was then carefully injected under the prostate capsule by means of a gauge 30 needle. The incision was closed using 4-0 suture and clips. The animals were then placed in cages and regular monitoring is conducted in order to monitor macroscopically the general condition of the mouse. After 20 days of tumor establishment, the mice are sacrificed, the primary tumor is thus removed, measured and weighed, and an acquisition in white light and GFP is carried out. The tumors are then placed in a paraformaldehyde solution (4%) and included in paraffin.

[7] = system: receptor CCR3; assay: Expression of receptor CCR3 in shRNA-transfected TRAMP-C1P3 cells; format: cell-based, mouse; details: stable shRNA, lentiviral
Description: The tumor cells (from prostate, breast, colon, pancreas, or melanoma) were washed three times in FACS buffer (PBS supplemented with 0.5% BSA and 2% FCS) and fixed with a 3.7% paraformaldehyde solution for 20 min at 4° C. The tumor cells were suspended with anti-CXCR4 (10 μg/ml), anti-CXCR1 (10 μg/ml), anti-CXCR2 (1:25), anti-CCR1 (10 μg/ml), anti-CCR2 (20 μg/ml), anti-CCR3 (10 μg/ml) antibodies or isotypical mouse anti-IgG control antibodies at 4° C. for 2 hours. The tumor cells were incubated with a mouse anti-IgG secondary antibody (dilution to 1:200) coupled with Alexa Fluor 488 or coupled with Cyanine 5 (for cells expressing GFP) for 30 minutes at 4° C. Finally, 2×10^4 cells were analyzed by flow cytometry using a FACScan and FACScalibur flow cytometer (analysis on CellQuest™ software (BD-PharMingen)).
In order to inhibit the expression of the receptor CCR3 (NM_009914) in a stable manner in TRAMP-C1P3 cells, an shRNA approach was used enabling stable negative regulation even after several months of culture. The interfering sequences were generated using the Dharmacon “Center siDesign” tool. The sequences of the sense strands of shRNA generated are as follows:
(§2) The nucleotides targeting the sequence of CCR3 are shown in upper case, whereas the sequence responsible for the hairpin structure and the sequences required for directional cloning are represented in lower case letter. The lentiviral vector LVTHM® is a lentiviral vector (LV) coding for the shRNA CCR3 sequences under the control of the H1 promoter also expressing GFP. The TRAMP-C1P3 cells were then transfected in the presence of m4, m5 or m6-LVTHM for 24 hours at a multiplicity of infection (MOI) of 1:10. The transfected population is selected by GFP expression (cell sorting). These cells were then analyzed by flow cytometry to validate the loss of expression of the CCR3 gene. The control used is the pLVTHM plasmid which expresses an ineffective shRNA sequence.

[8] = system: TRAMP-C1P3 cells; assay: Migration of shRNA-transfected TRAMP-C1P3 lines against CM-Ad or adipose tissue conditioned medium; format: cell-based, mouse
Description: In order to evaluate the ability of tumor cells to migrate according to the culture medium, Boyden chamber migration tests were conducted using 8 μm porosity Greiner bio-one inserts. In the lower compartment either culture medium with or without serum, or conditioned medium from F442A adipocytes (CM-Ad), human periprostatic adipose tissue (CM-PPAT), mouse perigonadal adipose tissue (CM-PGAT), adipocytes or vascular fraction cells (SVF) isolated from PPAT or PGAT is introduced. These conditioned media may be pretreated for 30 minutes by adding antibodies blocking the chemokine CCL7. Experiments with the recombinant chemokine CCL7 were also conducted, in this case the chemokine is added to serum-free culture medium to verify the chemoattractant potential thereof on a cell line. In the upper chamber 1×10^5 cells, previously depleted for 6 hours of serum are deposited in serum-free culture medium. For the migration tests in the presence of blocking antibodies specific for CCR1 or CCR3 or inhibitors of CCR1/CCR3, CCR2, CXCR1/CXCR2 and CXCR4, the tumor cells are previously incubated in a tube with the blocking antibody or the inhibitor for 30 min at 37° C. The migration of the tumor cells is evaluated after 12 hrs of migration at 37° C. and 5% CO2 by 1% toluidine blue staining supplemented with 0.1M borax (Sigma, St Louis, Mo., USA) and quantification of the absorbance (measured at 570 nm).
as §2

Molecule: O=C(Nc1ccc([N+](=O)[O-])cc1O)Nc1ccccc1Br [SB225002]
- inhibition of migration of PC-3 cells induced by CM-Ad ([1]; 50 nM, p<0.01): approximately 30%

Molecule: c1cc(CN2CCCNCCNCCCNCC2)ccc1CN1CCCNCCNCCCNCC1 [AMD3100]
- reduction of migration of PC-3 cells against CM-Ad ([1]; 100 nM (maximum dose, only dose effective), p<0.05): approximately 20%

Molecule: recombinant chemokine CCL7: human recombinant chemokine CCL7, ligand of CCR3, added to serum-free medium as chemoattractant
- induction of migration of RM1-BM cells with respect to serum-free medium [2]: significant migration
- dose from which induced migration of Du-145 cells is significant compared to medium alone [3]: 50 ng/mL
- dose from which induced migration of PC-3 cells is significant compared to medium alone [4]: 50 ng/mL
- dose from which dose-dependent chemotaxis of TRAMP-C1P3 cells is induced [5]: 50 ng/mL

B1: m6CCR3: shRNA targeting the gene CCR3, SEQ ID NO: 3 (nucleic acid)
chain: CGCCGTCCCCGGTGAGAGGTTCCGGAAACTTCAAGAGAGTTTCCGGAACCTCTCACCTTTTTGGAAAT
- invasion of the dorsal lobe of the prostate (histology, HE) compared with C1P3 Ctrl line ([6]; histological sections): much less extensive invasion
- tumor size ([6]; mice on normal-fat diet): 220±30 mm3
- tumor size ([6]; obese mice on high-fat diet): 210±25 mm3 and 200±50 mm3
- expression of receptor CCR3 in TRAMP-C1P3 line with respect to control line (shCtrl) [7]: significant reduction
- migration of shCCR3 TRAMP-C1P3 lines against CM-Ad with respect to control line [8]: significant reduction
- migration of shCCR3 TRAMP-C1P3 line against conditioned medium of ND AT-mu-PG with respect to control line ([8]; ND AT-mu-PG): reduction in the migration is also detected
- increase in migration in presence of HFD AT-mu-PG ([8]; m6CCR3 line, unlike shCtrl line): not significant

B2: m5CCR3: shRNA targeting the gene CCR3, SEQ ID NO: 2 (nucleic acid)
chain: CGCGTCCCCGACCACACCCTATGAATATTTCAAGAGAATATTCATAGGGTGTGGTCTTTTTGGAAAT
- expression of receptor CCR3 in TRAMP-C1P3 line with respect to control line (shCtrl) [7]: significant reduction
- migration of shCCR3 TRAMP-C1P3 lines against CM-Ad with respect to control line [8]: significant reduction

B3: m4CCR3: shRNA targeting the gene CCR3, SEQ ID NO: 1 (nucleic acid)
chain: CGCGTCCCCAGACCACACCCTATGAATATTCAAGAGATATTCATAGGGTGTGGTCTTTTTTGGAAAT
- expression of receptor CCR3 in TRAMP-C1P3 line with respect to control line (shCtrl) [7]: significant reduction
- migration of shCCR3 TRAMP-C1P3 lines against CM-Ad with respect to control line [8]: significant reduction
